From the DeepSol protein solubility set

Experiment: soluble on expression in E. coli; label from the status in PepcDB or PDB records

Sequence | soluble on expression in E. coli
MGSDKIHHHHHHMKRDFLGRTLAVIEDLSVEEQMFLYEKTRELKQRWYSGEDVSDFRIKKRNVGIYIVFVEPSTRTKESFINAAKFHSGPNVKVNVFDSEHSSFNKQESYTDTFSMLTGYSDYSIFVVRTRLEGVCRLLERRISEFASRNGIEVPSFINAGDGKHEHPTQELLDEYTFLEQNGFDNSFIHVALVGDLLHGRTVHSKVNGLKIFKNVKVDLVAPEELMMPEHYVEKMKKNGFEVRIFSSIREYLDQKDVAKIWYFTRLQLERMGEDILEKVHVLREAVTFKKEYLDALPEGVKFYHPLPRHKVYPTIPNFLDTLPLNGWETQARNGYWVRIVLLSMFGGALEAPFDTSKKEEKPEEDFIIPAPITHGSKGVQKEGKRGIKPIENGTVIDHIAKGKTPEEIYSTILKIRKILRLYDVDSADGIFRSSDGSFKGYISLPDRYLSKKEIKKLSAISPNTTVNIIKNSTVVEKYRIKLPPTIYGFEELRCKNENCITNPAHGENASPSFVRNEKGQFICEYCETPHSFEEIWSI | not soluble
GPGSMSKGFEVYPLTGSHKEVVINEALIRSAISFKPSLTTEDDRVRVVGNQEKALCEEKVQKEAAGIALEDVQTLLLSFRGIKRLENLSCLRSLTKLHLDNNRIRCIEHLESLVHLEWLDLSYNAIEVIDGLQALQHLNCLSLYANKITAVDGLTCLPELNTLSLGRNPLENIDETVHYLHHLPRLQVLTLKECPLAGLPNYRSRVLAFVRGLKFFDGHLVRHDEAAKAREAFRENLLTVDEEDEARAAAAKLQADQEIIASSYQQYNCPNEVMLFDELLHLDPEGRHMEAILRSEAVFSVAKEPLDRYQTEFNEQLRQLTAAMKDIRERRDADDAAYREAVTYTLRHSAAASLASMQRFEALAKGHIVKGVAQPVPGPAKRLPSQATRSLHAALDKLKKDLLEEEAHQYDVLEVLHNNTIAKWKSHSVEVVLQSSFEALLRLETDFQATVRHIFDAVFEERRKGDNAERAFRYVGQDDAMLAFLDNKEEYQRTVNEWYELRRKRVEELEMHHLKAEETLLNARANSILAAEQDRHRRRVHEVCQYVKEMSSRIDGCDH | not soluble
MWQLKKEQNVPIYRSIMEMIVQKIQTGELLPGEKIPSERKLAEYLSVNRSTVVHALDELVDLGWIVRKRGSGTIVNEGKWGVMMTPRTDWHRYLEQNVFKQVHPLVTEIELRAKQNLPTDLDMYTGELPLDLIPSFDFPALNWKQFLKEEAQDELGYLPLRKEIQAITATEYQLHLPSESLLLTSGAQQALFLVLQVLLRQGDSVAVEDPSFFYALPIFQAAGVRLFGVPMTEEGIDLEALEQTIRQHRIKMVMVNPSFQNPTGTVMPLRKREQLVKVCQTYQVPILEDDVFGQLSFIPKTEIPPLKKLDPDNVLYIGSLSKILGSTTKIGWLSAPASVTKQIAEARKMMDVSLSIFPQMLAKMAIEDPSFSEKITLLNKQVEQRATAVYQVFKSLSEWEVSPVKGGFYLWAHWRQGALKPEDWQVFLREGVLVAPSVAFSEKRGSIRLNCSRISPEEMPLFCERMVRITRQLSENRQTKIEQ | not soluble
MSLAIPTRNEVSDDLKWDLSRVFKDDQEWEQEYNRVAIEIKNLGRFKGNLAKSGQDLYEGITEILSVNRRLEKVYVYATMSSDVDTSNTHYLGLVAKAQSLANQMSAAISFVDPEILSIPEETLAKFMQDEPRLKEYQHRLEQITKKRPHTLPASEEKIIAAAGDAMGTSANTFNVLTNSDMEYGYVQDEDGEMVQLSDGLYSLLIQSQDRNVRKNAFDVMYASYGQFENSLASTLSGEVKAHNFNAQVHKYNSAREAALSENGVPTAVYDTLVKEVNSHLNLLHRYVSLRKKILGLSDLQMYDMYVPLTGEPSLSYNFEEAKNEARRALAPLGKDYLEHVDYIFNNRVIDVVESQNKVTGAYSGGSYDTDPYELLNWEDNLDSLYTLVHETGHSVHSWYTRNTQPYVYGDYPIFVAEIASTTNENILTEYFLDKITDPKTRAFVLNHYLDSFKGTLFRQTQFAEFEQFIHEADANGQPLTADVLDEFYGNLNQRYYGDSVEPGGEIAKEWARIPHFYYNFYVYQYATGFAAATALANNVVHGTDKERTAYINFLKAGSSDYPTEIMKRAGVDMTKADYLKDAFNTFEERLNEFEKIVDELKTEGHHHHHH | soluble
MSLLSIIPISAGIPLTETEPKQKWLEEWSKQLFVKVSIDSEYGWGEVLPAAFNSPALYADIVKRLEPSLNGMEISEPGIIWEKLRKLTFSGGYGPVIGAISGVDIALWDLKAKLSKLYLGDIFGKNEQKIARYASLSRYANYEAVIRASKNIVESGFKAIKLHQTKDDTLESVKRFREEIGYGVDLMVDLNCAMNIDEAIKFANSVQRYELKWVEEPIWPPDDLASLKKINDIVPVAAGENFFDFFKFEDAVHLEALTYYQPDVTKVGGLTPTLKILDLLKKNHEQVAFHNRPHNGWIGIFASIAAARMNGVDALIETPPNGVPSQYFRYNAMITSEVIAPNGVGLSIEPIEPLPQPKDEKILIFHDEGHHHHHH | not soluble
MTVTLTCRFKLELSKDQKQQFLDIATAYTNAVNYVLEQNLKDKSTNVKKLHRLYYKTIREDFDLPAQMAINVNRDVSAMYKTLWAQFKELKRRKPDSKAVKKFWDKPPKRKSLIVKYTYNRTASFKKINGEWHASLSTLQGRIKWIPMKGWSKHFEYLKSCKIGDPILTYDKSSKTFFLLVPVTLEVQEHQPKEIVGVDVGERHIAAVASTKGTRYLIDLPEEFKQRKQHYQRLRSELMSKGTRSAKRKLARISRREKRFTENVLHIIAKKLTTSHPGARFVLEDLTQIRANRITYRGKDKEARRQSEQWPFASLQQKIEYKAKLYYGVQSEKVDPSYTSQTCPRCGHVSKENRPDHGERFVCQSCGYEEHADIVGAINIALRVLAKDQQVNLEKLLGAVVSRPDAPRLG | not soluble
MGSDKIHHHHHHMNKNQYPKWEELPELDLYLDQVLLYVNQLINPKTITNDKLLTASMINNYVKHNYISKPIKKKYNRRQVARLIVITAFKQVFAIQEISQTLELLTADNHSEEAYNGFAACMNKEEVHDLPPVVISACQTLNLYQETQKLVLELGGKNKNA | not soluble
MGSDKIHHHHHHVRIAILSQGPQLYSTKRLVEAALARGHEVKVINPLKCYMNINMTKPSIHMAGKDLGHFDAVIPRIGASVTFYGSAVLRQFEMMGVYAVNGSIGIARSRDKLRSMQLLSRQGIGLPITGFANKPSDIPDLIDMVGGAPLVVKLLEGTQGIGVVLAETRKAAESVLEAFMGLKANIMVQEYIAEAQGADIRCFVLGDKVIAAMKRQAKPGEFRSNLHRGGSATLVKLTPEERSVALRAAKTMGLNIAGVDLLRSNHGPVVMEVNSSPGLEGIEKATQKDVADAIICFMEKNANKSIKSAQ | not soluble
MSLEATIRLGSSLPLTGHARYLGVETLRGALAYINHVNDSGGVHGRRIELDARDDGYDPPRCLANTQEQLISGEVFALTCYVGTPTTMRILPLVDEARIPLVGAFTGANGLRDPFSRYVFNVRASYYQETDAAVRHLVHDLGLTRIAVFYQYDAYGFDGLTGTELALRELGLAPVARGSYARGTDNIEDGLHRIIASDAEAVLMVGTSEPTARFIRMAEEAGFDAVYHALSFTGAEELARLLGHTDAKVLLSQVVPPPDAPEAPAILGCTTEYVNLLKRYYPDATPSAIGLEGYINARILVEGLRRAGPDLTREGFVRALESLRDYPLGGRTVVSFSPESRQGMGSVYFTRLVGGRFELMREAGAPPSAARPASNKGEGHHHHHH | soluble
GPGSMSRTQTSSKSVPKNIAVYCRVRPPVPNEKGHTFQNISYDDSDSRAIAVARKSGTKALEKTYLFNRVFRPTATQKDVYETFAKGAVDAAFDGQHGVLFVYGQTGSGKTFTISNDEPNNEGVLQRSMRDIWNRIASDTANDYSCSVSYVQLYNEILTDLLDDAKGKVRIQMGSEGRGDVVMVSDSTGMAIEREVKDYKSTMACFQVGLARKEMASTSMNSTSSRSHTIFTLNIVKAKKVVAVTV | not soluble
DKIAIIGSRRMSVYTKNCVFSLASMLKNAHLCVVSGGALGVDITASMAAMPNTIGIFANGLDQIYPRTNEKIIKQIYENALALSEYEDDYLPKNYDFLLRNRLVIALSKAVVVAQADIKSGSMQSAKLALELNKPLYVLPQRLGESTATNLLLKENKAKLICDFKEFVSEFASID | not soluble
MNNFTYEKLHNNLQYLKLNTIEELLDNCLEIAARDSKTTMEVLDYLFEQEKKHREAAAIERRMKSAGFPVKKMLEEFDFEFQSSINKKVIEDLATLRFVHNAENIVLLGPPGVGKSHLAIALGIEAVKAGISVHFTNTGNLIERLKIANREGILEKKIRDLMKFKVLIIDEIGYLPFDDEGAHCLFQLISRRYEKSSTILTSNKSYGEWGEIFKDHVIAAALLDRILHHCTTINIKGESYRLKERKKQGIKTGLIRHNSTEILENLEHHHHHH | soluble
MGSDKIHHHHHHMIDPDDMDHCRHAIREGSYSFHAASKLLPSSVRDPALALYAFCRLADDEVDFGADKPAAVLALSERLEHAYQGRPRNHPTDRAFTAMIEEFDMPRALPEALLEGLAWDGMERRYATLSDLRSYSARVASAVGAMMCVLMRVRDEQALARACDLGVAMQLTNIARDVGEDAAERRLYLPTDWLEEEGIDIERLFTSPVSSPRLKRLTKRLLAEAHKLYLKSEPGIGRLPLAARPGIFAARHCYDAIGRNLAQHGYDNVNRRATTTGGHKMRLLGLSIVRAGLASILPESPVIFARPLPETAFLVEAAAHPAPNKDAWSDPLLSVLSQLKAQDRPHAAE | not soluble
AETVESCLAKSHTENSFTNVWKDDKTLDRYANYEGCLWNATGVVVCTGDETQCYGTWVPIGLAIPENEGGGSEGGGSEGGGSEGGGDDIFGELSSGKNAPKTGGGAKGNNASPAGSGNTKNNGASGADINNYAGQIKSAIESKFYDASSYAGKTCTLRIKLAPDGMLLDIKPEGGDPALCQAALAAAKLAKIPKPPSQAVYEVFKNAPLDFKPAAAHHHHHH | soluble
MKRVFVFQDFKSQKFWSIDVRGTDVIVNYGKLGTDGQTQVKNFSSAGEAEKAAGKLIAEKTKKGYVETLEEVAKEMKVEAKKYALSYDEAEEGVNLMDKILKDKKLPSLKQITIGCWGYEGEDCSDIADGIVENKEKFAHFEGLFWGDIDFEEQEISWIEQVDLSPVLDAMPLLNNLKIKGTNNLSIGKKPRPNLKSLEIISGGLPDSVVEDILGSDLPNLEKLVLYVGVEDYGFDGDMNVFRPLFSKDRFPNLKWLGIVDAEEQNVVVEMFLESDILPQLETMDISAGVLTDEGARLLLDHVDKIKHLKFINMKYNYLSDEMKKELQKSLPMKIDVSDSQEYDDDYSYPMITELEHHHHHH | soluble
MGAIKPLEDWLKNLGVKSDIRPNLLAGMEINDQICSVPLQTSNIGILERSKLFQAAGITEPPKTWEELRAVVKKSTIDKNGDHRPEQYGMLLTFGKGGWTVFSWLPFLFAAQGEIITDHYPSLSNPGAITALQFW | not soluble
SASMAGPDHLFNLRNHFYLGAYQAAINNSEIPNLSQEDIVERDCLVHRAYIALGSYQLVISEIDEAAATPLQAVKLLAMYLSSPENKESTISSLREWLADPTVGNNAIIRLIAGTIFMHEEDYNEALKHTHSGGTMDLHALNVQIFIKMHRSDFAEKQLRVMQQIDEDHTLTQLASAWLNLAVGGSKIQEAYLIFQDFSEKYPMTSLILNGKAVCCMHMGNFEEAETLLLEALNKDAKDPETLANLVVCSLHVGKSSSRYLNQLKLSHPEHVLVKRAASAEDNFERALQSFA | soluble
MRFAVLGSGSRGNGTLVASNDTYVLVDCGFSLRETERRLARLGVAASQLSAILVTHEHADHVHGVGLLSRRYNVPVYLSSGTLRGMRKPVEVAGLLAGGESLQIGALDIDVVSVAHDALEPTQFVFSDGSRRFGLLTDLGSYCSNVLQRYQGLDALMIEANHCRDMLARGQYPVFLKQRVGCETGHLNNHQAASLVSELGWQDLQHLVLAHLSSKNNLPHLARQCFVDTLGCDPDWLQLADQDSGLDWRHIALEHHHHHH | not soluble
FAADLNSNLNLFYTPSEIVNGKTDTGVKPEAGQRIRVGGMVTVGSMVRDPNSLHVQFAVHDSLGGEILVTYDDLLPDLFREGQGIVAQGVLGEDGKLAATEVLAKHDENYMPPEVAEAMGQKHEKLDYSQQKSATQ | soluble
